According to the Immune Epitope Database (IEDB):

Assays:
Assay in all cases: IEDB peptide-MHC binding, purified MHC/competitive/radioactivity; ≥ and ≤ were set here for values at or beyond the usual limits of such assays
Details in all cases: source organism: Bordetella pertussis
HLA-B*44:03 = molecular target: HLA-B*44:03
HLA-A*02:01 = molecular target: HLA-A*02:01
HLA-B*07:02 = molecular target: HLA-B*07:02
HLA-B*53:01 = molecular target: HLA-B*53:01
HLA-B*35:01 = molecular target: HLA-B*35:01
HLA-B*57:01 = molecular target: HLA-B*57:01

## DGPPSRPTT
HLA-B*44:03
  IC50: ≥ 70.1 µM

## FQTYALTGI
HLA-A*02:01
  IC50: 1.32 µM

## LPSIPGTSI
HLA-B*07:02
  IC50: 0.116 µM

## NPGSLIAEV
HLA-B*53:01
  IC50: 58.7 µM

## PAVALPRPL
HLA-B*07:02
  IC50: ≥ 77.5 µM

## QAAPLSITL
HLA-B*35:01
  IC50: 4.46 µM
HLA-B*53:01
  IC50: 4.49 µM

## RSRVRALAW
HLA-B*57:01
  IC50: 0.0121 µM

## TAFMSGRSL
HLA-B*07:02
  IC50: 56.1 µM

## TSKQDERNY
HLA-B*57:01
  IC50: ≥ 70.4 µM

## VGGGEHGRW
HLA-B*57:01
  IC50: 57.9 µM

## YEAGFSLGS
HLA-B*44:03
  IC50: 35.4 µM
